Measured values from publication PMC12072577, “Structure and Inhibition of the Human Na^+/H^+ Exchanger SLC9B2” (International Journal of Molecular Sciences, 2025).

B1: mouse monoclonal antibody against bison NHA2∆N (parent of the Fab) (antibody, V domains shown)
VH: EVQLQESGPELVKPGASVKMSCKASGYTFTNYFIHWVKQKPGQGLEWIGYINPYNDITKFNEKFKGKATLTSDKSSRTAYMELSSLTSEDSAVYYCARCDGYYRYYAMDYWGQGTSVTVSS
VL: DIVMTQTTSSLSASLGDRVTISCRASQDISNYLNWFQQKPDGTVKLLICYTSRLHSGVPSRFSGSGSGTDYSLTISNLEQEDIATYFCQQDSKHPWTFGGGTKLEIK
notes: Fab part as the heavy chain of m2 (in PDB 9QUB and 9QUW); as the light chain of m2 (in PDB 9QUB and 9QUW); Whole antibody of the selected hybridoma clone; also called antibody clone; source: mouse hybridoma (MRL/lpr mice immunised with bison NHA2 proteoliposomes)
B2: Homo sapiens NHA2∆N (residues 59–537), tags removed with TEV protease, in MSP1E2 nanodiscs (domain or fragment, human, UniProt Q86UD5 59-537, looked up)
chain: LQETPTEANHVQRLRQMLACPPHGLLDRVITNVTIIVLLWAVVWSITGSECLPGGNLFGIIILFYCAIIGGKLLGLIKLPTLPPLPSLLGMLLAGFLIRNIPVINDNVQIKHKWSSSLRSIALSIILVRAGLGLDSKALKKLKGVCVRLSMGPCIVEACTSALLAHYLLGLPWQWGFILGFVLGAVSPAVVVPSMLLLQGGGYGVEKGVPTLLMAAGSFDDILAITGFNTCLGIAFSTGSTVFNVLRGVLEVVIGVATGSVLGFFIQYFPSRDQDKLVCKRTFLVLGLSVLAVFSSVHFGFPGSGGLCTLVMAFLAGMGWTSEKAEVEKIIAVAWDIFQPLLFGLIGAEVSIASLRPETVGLCVATVGIAVLIRILTTFLMVCFAGFNLKEKIFISFAWLPKATVQAAIGSVALDTARSHGEKQLEDYGMDVLTVAFLSILITAPIGSLLIGLLGPRLLQKVEHQNKDEEVQGETSVQV
notes: Sodium/proton exchanger NHA2 (SLC9B2), Homo sapiens, residues 59-537; construct lacks the first 58 amino acids; The methods call the tags N-terminal, but the protein is named NHA2∆N-GFP; TEV protease was added after the nanodisc reconstitution and before the final SEC; also called human NHA2∆N; hsNHA2∆N; not shown: GFP, N-terminal, cleaved; TwinStrep, N-terminal, cleaved; His8, N-terminal, cleaved

Assays:
[1] = target: T1, bison NHA2ΔN reconstituted into biotinylated proteoliposomes (bison, UniProt A0A6P3HVI0); experiment: ELISA; liposome ELISA: biotinylated proteoliposomes with bison NHA2ΔN immobilised on streptavidin-coated microplates; hybridoma clones
T1 construct: Sodium/proton exchanger NHA2 (SLC9B2) of bison, N-terminally truncated (ΔN); The biotin is on a lipid of the liposome, not on the protein; also called bison NHA2∆N; source: reconstituted with egg PC and a biotinylated lipid

[2] = target: the molecule itself; experiment: cryo-EM structure; human NHA2∆N-Fab complex in MSP1E2 nanodiscs with yeast PI lipids; apo and with 1 mM phloretin

T1 sequence (A0A6P3HVI0 whole entry, stated change not applied, the tested form may be a part): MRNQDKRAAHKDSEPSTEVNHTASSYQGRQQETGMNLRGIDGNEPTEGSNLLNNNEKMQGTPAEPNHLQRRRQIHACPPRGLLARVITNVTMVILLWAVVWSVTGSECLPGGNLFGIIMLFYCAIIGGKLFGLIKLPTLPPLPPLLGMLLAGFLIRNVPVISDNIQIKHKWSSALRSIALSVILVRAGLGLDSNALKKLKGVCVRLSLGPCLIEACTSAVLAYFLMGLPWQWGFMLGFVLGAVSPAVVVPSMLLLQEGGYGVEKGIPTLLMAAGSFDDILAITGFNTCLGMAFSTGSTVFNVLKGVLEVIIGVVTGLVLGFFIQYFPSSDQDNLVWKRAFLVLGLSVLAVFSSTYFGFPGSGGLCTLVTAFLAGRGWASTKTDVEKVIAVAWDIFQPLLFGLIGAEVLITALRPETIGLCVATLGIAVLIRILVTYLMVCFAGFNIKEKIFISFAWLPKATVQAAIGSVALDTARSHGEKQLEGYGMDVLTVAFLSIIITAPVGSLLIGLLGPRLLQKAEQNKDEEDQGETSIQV

Row | Binder | binding result [1] | stoichiometry N [2]
1 | B1 | binds | –
2 | B2 | – | 2
